Among the data in publication doi:10.1101/2021.11.20.466133v3 are Km values, retold here.

Substrate in series [1]: [H][C@@]1(O)[C@]2([H])OP(=O)(O)OC[C@@]3([H])O[C@@]([H])(n4cnc5c(N)ncnc54)[C@]([H])(O)[C@]3([H])OP(=O)(O)OC[C@@]2([H])O[C@@]1([H])n1cnc2c(N)ncnc21
Description: purified protein. As to conditions: pH 7.5, 5 mM MgCl2.

Substrate in series [2]: Nc1ncnc2c1ncn2[C@@H]1O[C@H](COP(=O)(O)OP(=O)(O)OP(=O)(O)O)[C@@H](O)[C@H]1O
Description: purified protein. The conditions noted are these: pH 7.5, 37 °C, 5 mM MgCl2.

B1: MsPDE (Mycolicibacterium smegmatis MC2 155) (protein)
chain: MPVTTTDPKTGLLTGPDAQIAGARVDARGAADLLTAASSVSVICHVYPDADTIGAGLALAQVLAASGKHVEVSFATPAQLPESLQSLPGGHLLVAPEAMRRDADLVVTVDIPSINRLGALSGLAGPGREVLVIDHHASNQLFGTANYIDPSADSTTMLVAELLDAWGKPIDEKVAHCLYAGLTTDTGSFRWATARAHRLAARLVELGVDNASISRTLLDTHPFAWLPMLSRVLATARLLPDALDGRGFVYAVVPHDEWSEARPEEVESIVDIVRTTQQAEVAAVFKEIEPMHWSVSMRAKSVNLASVASAFGGGGHPHAAGYSATGSADDVVQALARALG
As for B1, in the series “purified protein [1]”, the Km (usually the concentration of substrate that gives half-maximal velocity) was 370 µM.

B2: MsDisA (Mycolicibacterium smegmatis MC2 155) (protein)
chain: MAVKSGARSGRNVVHLARPTLRETLGRLAPGTPLRDGLERILRGRTGALIVLGYDDSVEAICDGGFVLDVRYAPTRLRELSKMDGAVVLSSDGSRILRANVQLVPDPSIPTDESGTRHRSAERTAIQTGYPVISVSHSMSIVTVYVAGERHVVPDSATILSRANQTIATLERYKGRLDEVSRQLSTAEIEDFVTLRDVMTVVQRLEMVRRISLEIDADVVELGTDGRQLKLQLDELVGDNETARELIVRDYHANPDPPTAAQVAATLEELDSLSDSELLDFTVLARVFGYPSTAEAQDSAMSSRGYRAMAAIPRLQFAHVDLLVRSFGSLQNLLAASADDLQSVDGIGSMWARHIREGLSLLAESTIADRLA
As to B2, the Km in “purified protein [2]” stood at 480 µM.
